This is an account of results in paper doi:10.1101/2025.02.04.636450.

Test [1] concerns the target circularly permuted AaLS with a Strep II tag in place of the His-tag region (cpAaLS(Strep)) (Aquifex aeolicus).
The target of test [2] is wildtype lumazine synthase from Aquifex aeolicus (AaLS-wt) (Aquifex aeolicus) (UniProt O66529). Briefly: absorbance ratio at 280/475 nm.
Test [3] deals with circularly permuted AaLS with a His-tag in the linker connecting native termini (cpAaLS(His)) (Aquifex aeolicus). Briefly: absorbance ratio at 280/475 nm.

On to “circularly permuted AaLS with a Strep II tag in place of the His-tag region (cpAaLS(Strep))”, for which, in test [1], the stoichiometry N was found to be 5.
Consider “cpAaLS-GFP-SsrA (GFP-SsrA fused to the C-terminus of cpAaLS)”, for which the results for the GFP molecules per pentamer (GFP molecules per pentamer) in test [2] and in test [3] were 0.11 and 0.14, respectively.
